For assay [1], the target named is T1, human FGFR4 (FGF receptor 4) on cells (human, UniProt P22455 22-802). Kind of assay: cell-based or functional assay.
For assay [2], the target named is T1, human FGFR4 (FGF receptor 4) on cells. The experiment in a line: flow cytometry titration on Huh-7 cells. Here is the method: Huh-7 cells (obtained from JCRB Cell Bank) were cultured in DMEM containing 10% FBS under standard conditions at 37° C. and 5% CO₂. Cells were harvested with 5 mM EDTA (in PBS) and 200,000 cells per sample were incubated with indicated anti-FGFR4 antibody (1:3 serial dilution; starting concentration 30 μg/ml) for 30 min at 4° C. After incubation, cells were washed and bound antibody was determined using a Phycoerythrin-labeled anti-human IgG antibody (Jackson Immuno Research). Antibody binding to Huh-7 was measured with a BD Accuri C6 flow cytometer (BD Biosciences, San Jose, Calif.; U.S.A.) and analyzed using the AccuriC6 software. Subsequently, the equilibrium dissociation constant (KD) was determined using Prism (GraphPad Software, La Jolla, Calif., U.S.A.).
Background: Flow cytometry measures light scatter and fluorescence of single cells or particles in a stream.

Assay [3] deals with T2, extracellular domain of human FGFR4 (myc- and His-tagged) (human, UniProt P22455 22-369).
T2 construct: extracellular domain; Captured on the plate by a mouse anti-His tag antibody; also called human FGFR4-His/Myc; FGFR4 ECD; not shown: myc and His tags
Kind of assay: ELISA, FGFR4 ECD (myc, His) captured by anti-His antibody. Here is the method: (§1) Mouse anti-His tag antibody was obtained from Bio-Rad (Hercules, Calif.; U.S.A.) and coated onto MaxiSorp® flat-bottom 96 well ELISA plates (Sigma, St. Louis, Mo.; U.S.A.) at a concentration of 2 μg/ml. After coating, the extracellular domain of human FGFR4 (myc- and His-tagged) was added at a concentration of 0.01 μg/ml. After removal of unbound protein, indicated antiFGFR4 antibody was added (1:4 serial dilution, starting concentration 10 μg/ml) and binding was finally detected with the AttoPhos® AP Fluorescent Substrate System (Promega) using an alkaline-phosphatase coupled goat anti-human IgG F(ab′) fragment on the Fluostar Omega fluorescent plate reader instrument from BMG Labtech (Ortenberg; Germany). Subsequently, dissociation constants were calculated for U4-3, -5 and -9 using Graph Pad Prism (Table 5).
In general terms: In an ELISA, binding on a coated surface is turned into a signal by an enzyme label.

For assay [4], the target named is T1, human FGFR4 (FGF receptor 4) on cells. The experiment in a line: cell-based or functional assay. This is another data set of the same source.
Assay [5] addresses T2, extracellular domain of human FGFR4 …. Kind of assay: ELISA, FGFR4 ECD (myc/His) captured by anti-His antibody, AP-coupled anti-human IgG F(ab') detection. The procedure: as §1
Assay [6] has as its target antigen of the Biacore assay (FGFR4; construct not stated) (UniProt P22455 22-369, limits assumed). The experiment in a line: Biacore T100, antibody captured by anti-human IgG, antigen injected, bivalent analyte model, KD1, average of 3. The procedure: Standard amine coupling was applied to prepare a goat anti-human IgG capturing S-CM5 sensor chip (the reference flow cell contained the capturing antibody as well). The carboxymethylated dextran (CMD) surface was activated by injecting a mixture of 200 mM EDC and 50 mM NHS for 7 min (10 μl/min). Subsequently, 30 μg/ml anti-human IgG antibody diluted in 10 mM Na acetate pH 5.0 was injected for 7 minutes (10 μl/min). The remaining unreacted esters were quenched with 1 M Ethanolamine pH 8.5 (7 min, […]). Surface densities of 17892-18376 RU were obtained for the antihuman IgG antibody.
Interaction analyses of antigen with reversibly captured antibody were performed using a Biacore™ T100 instrument (GE Healthcare Bio-Sciences (Piscataway, N.J.; U.S.A.)) at 25° C. in HBS analysis buffer (10 mM HEPES pH 7.4, 150 mM NaCl, 50 μM EDTA, 0.05% Tween 20). 37-38 RU of specific antibody was captured on a flow cell. […] The dissociation was recorded for 10 min at the same flow rate. […]
Data processing (e.g. blank run subtraction) and evaluation was performed by global fitting applying a bivalent analyte binding model using the Biacore T100 Evaluation Software version 2.0.3. The equilibrium dissociation constant KD1 was calculated by dividing kd1 with ka1.
For orientation: In SPR one partner is held on a chip, and binding of the other changes the refractive index at the surface.

As usually defined, the EC50 (read off the curve) is the concentration at which the effect is half-maximal. A high value points to weaker potency.

B1: FGFR4 binding Fab U4-4 (Fab, V domains shown)
VH: EVQLLESGGGLVQPGGSLRLSCAASGFTFSSNYMSWVRQAPGKGLEWVSLISGSGGSTYYADSVQGRFTISRDNSKNTLYLQMNSLRAEDTAVYYCARNTAGFGYFDLWGQGTLVTVSS
VL: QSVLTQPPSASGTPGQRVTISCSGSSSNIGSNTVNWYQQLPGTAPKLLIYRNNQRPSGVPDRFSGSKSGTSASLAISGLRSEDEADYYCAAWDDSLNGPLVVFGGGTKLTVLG
Turning to B1, in assay [1], the “Elk1 luciferase reporter gene assay, % of control (+rhFGF 17), Fab at 0.1 µg/ml” value was 82.2 % of control (+rhFGF 17); the “Elk1 luciferase reporter gene assay, % of control (+rhFGF 17), Fab at 1 µg/ml” value is 28.8 % of control (+rhFGF 17); the “Elk1 luciferase reporter gene assay, % of control (+rhFGF 17), Fab at 10 µg/ml” value was 20.1 % of control (+rhFGF 17).

B2: FGFR4 binding Fab U4-5 (Fab, V domains shown)
VH: EVQLLESGGGLVQPGGSLRLSCAASGFTFSSNYMNWVRQAPGKGLEWVAVISYDGSNKYYADSVKGRFTISRDNSKNTLYLQMNSLRAEDTAVYYCVTKSRDFWRGPFDYWGQGTLVTVSS
VL: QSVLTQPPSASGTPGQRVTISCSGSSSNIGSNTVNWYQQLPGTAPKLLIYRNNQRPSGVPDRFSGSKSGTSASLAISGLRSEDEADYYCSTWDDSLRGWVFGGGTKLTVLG
B2: in assay [1], the “Elk1 luciferase reporter gene assay, % of control (+rhFGF 17), Fab at 0.1 µg/ml” value is 116 % of control (+rhFGF 17); the “Elk1 luciferase reporter gene assay, % of control (+rhFGF 17), Fab at 1 µg/ml” value was 43.2 % of control (+rhFGF 17); the “Elk1 luciferase reporter gene assay, % of control (+rhFGF 17), Fab at 10 µg/ml” value was 16.3 % of control (+rhFGF 17).

B3: human anti-FGFR4 antibody U4-5 (antibody, V domains shown)
VH: EVQLLESGGGLVQPGGSLRLSCAASGFTFSSNYMNWVRQAPGKGLEWVAVISYDGSNKYYADSVKGRFTISRDNSKNTLYLQMNSLRAEDTAVYYCVTKSRDFWRGPFDYWGQGTLVTVSS
VL: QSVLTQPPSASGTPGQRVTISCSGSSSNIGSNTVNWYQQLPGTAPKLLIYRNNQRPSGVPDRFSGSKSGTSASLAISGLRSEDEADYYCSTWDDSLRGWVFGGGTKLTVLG
notes: IgG format
With B3, the figures for the Kd in assay [2] and in assay [3] were 1.5 nM and 0.08 nM, respectively.

B4: human anti-FGFR4 antibody U4-6 (antibody, V domains shown)
VH: EVQLLESGGGLVQPGGSLRLSCAASGFTFSDYYMNWVRQAPGKGLEWVSAIGGSGDRTYYADSVKGRFTISRDNSKNTLYLQMNSLRAEDTAVYYCALGGSYFGYWGQGTLVTVSS
VL: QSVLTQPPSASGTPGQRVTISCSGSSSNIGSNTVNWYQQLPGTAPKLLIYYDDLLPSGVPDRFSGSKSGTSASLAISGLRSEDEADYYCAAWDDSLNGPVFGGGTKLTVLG
notes: IgG format
B4 displayed a Kd in assay [2] of 1.6 nM.

B5: FGFR4 binding Fab U4-1 (Fab, V domains shown)
VH: EVQLLESGGGLVQPGGSLRLSCAASGFTFSRNYMSWVRQAPGKGLEWVSAISGSGGSTYYADSVKGRFTISRDNSKNTLYLQMNSLRAEDTAVYYCARVTSPGAFDIWGQGTLVTVSS
VL: QSVLTQPPSASGTPGQRVTISCSGGTSNIGTNTVNWYQQLPGTAPKLLIYRNNQRPSGVPDRFSGSKSGTSSSLAISGLRSEDEADYYCAAWDDSLNGPYVVFGGGTKLTVLG
Take B5: in assay [1], the “Elk1 luciferase reporter gene assay, % of control (+rhFGF 17), Fab at 0.1 µg/ml” value is 70.4 % of control (+rhFGF 17); the “Elk1 luciferase reporter gene assay, % of control (+rhFGF 17), Fab at 1 µg/ml” value is 39.6 % of control (+rhFGF 17); the “Elk1 luciferase reporter gene assay, % of control (+rhFGF 17), Fab at 10 µg/ml” value is 32 % of control (+rhFGF 17).

B6: human anti-FGFR4 antibody U4-1 (antibody, V domains shown)
VH: EVQLLESGGGLVQPGGSLRLSCAASGFTFSRNYMSWVRQAPGKGLEWVSAISGSGGSTYYADSVKGRFTISRDNSKNTLYLQMNSLRAEDTAVYYCARVTSPGAFDIWGQGTLVTVSS
VL: QSVLTQPPSASGTPGQRVTISCSGGTSNIGTNTVNWYQQLPGTAPKLLIYRNNQRPSGVPDRFSGSKSGTSSSLAISGLRSEDEADYYCAAWDDSLNGPYVVFGGGTKLTVLG
For the molecule B6, in assay [2], the Kd amounted to 0.85 nM.

B7: FGFR4 binding Fab U4-8 (Fab, V domains shown)
VH: EVQLLESGGGLVQPGGSLRLSCAASGFTFSSNYMSWVRQAPGKGLEWVSSISGSGGRTYYADSVKGRFTISRDNSKNTLYLQMNSLRAEDTAVYYCARMTVFGAATLWGQGTLVTVSS
VL: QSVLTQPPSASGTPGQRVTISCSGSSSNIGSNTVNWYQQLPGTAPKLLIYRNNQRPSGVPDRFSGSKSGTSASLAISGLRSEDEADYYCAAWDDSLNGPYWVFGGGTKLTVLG
B7: in assay [1], the “Elk1 luciferase reporter gene assay, % of control (+rhFGF 17), Fab at 0.1 µg/ml” value is 65.2 % of control (+rhFGF 17); the “Elk1 luciferase reporter gene assay, % of control (+rhFGF 17), Fab at 1 µg/ml” value was 22.5 % of control (+rhFGF 17); the “Elk1 luciferase reporter gene assay, % of control (+rhFGF 17), Fab at 10 µg/ml” value was 12.7 % of control (+rhFGF 17).

B8: human anti-FGFR4 antibody U4-2 (antibody, V domains shown)
VH: EVQLLESGGGLVQPGGSLRLSCAASGFTFSKAWMSWVRQAPGKGLEWVSAISGSGGSTYYADSVKGRFTISRDNSKNTLYLQMNSLRAEDTAVYYCARLYSYGDFDHWGQGTLVTVSS
VL: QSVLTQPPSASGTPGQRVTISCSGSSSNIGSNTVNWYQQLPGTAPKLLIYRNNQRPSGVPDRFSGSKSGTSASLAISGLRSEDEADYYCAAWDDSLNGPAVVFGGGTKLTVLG
B8 showed a Kd in assay [2] of 0.15 nM.

B9: human anti-FGFR4 antibody U4-8 (antibody, V domains shown)
VH: EVQLLESGGGLVQPGGSLRLSCAASGFTFSSNYMSWVRQAPGKGLEWVSSISGSGGRTYYADSVKGRFTISRDNSKNTLYLQMNSLRAEDTAVYYCARMTVFGAATLWGQGTLVTVSS
VL: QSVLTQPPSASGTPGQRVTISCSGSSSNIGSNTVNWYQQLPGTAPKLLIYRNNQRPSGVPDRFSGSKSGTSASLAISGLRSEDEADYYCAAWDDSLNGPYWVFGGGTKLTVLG
notes: IgG format
Regarding B9, the Kd in assay [2] is 0.46 nM.

B10: FGFR4 binding Fab U4-2 (Fab, V domains shown)
VH: EVQLLESGGGLVQPGGSLRLSCAASGFTFSKAWMSWVRQAPGKGLEWVSAISGSGGSTYYADSVKGRFTISRDNSKNTLYLQMNSLRAEDTAVYYCARLYSYGDFDHWGQGTLVTVSS
VL: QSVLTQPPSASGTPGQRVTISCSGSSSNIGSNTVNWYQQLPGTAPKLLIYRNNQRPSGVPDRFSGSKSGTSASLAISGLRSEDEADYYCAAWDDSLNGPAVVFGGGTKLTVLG
In the case of B10, in assay [1], the “Elk1 luciferase reporter gene assay, % of control (+rhFGF 17), Fab at 0.1 µg/ml” value was 112 % of control (+rhFGF 17); the “Elk1 luciferase reporter gene assay, % of control (+rhFGF 17), Fab at 1 µg/ml” value is 43.8 % of control (+rhFGF 17); the “Elk1 luciferase reporter gene assay, % of control (+rhFGF 17), Fab at 10 µg/ml” value was 26.6 % of control (+rhFGF 17).

B11: human anti-FGFR4 antibody U4-9 (antibody, V domains shown)
VH: EVQLLESGGGLVQPGGSLRLSCAASGFTFSDYYMSWIRQAPGKGLEWVSTISGSGGSTYYADSVKGRFTISRDNSKNTLYLQMNSLRAEDTAVYYCARLTAYGHVDSWGQGTLVTVSS
VL: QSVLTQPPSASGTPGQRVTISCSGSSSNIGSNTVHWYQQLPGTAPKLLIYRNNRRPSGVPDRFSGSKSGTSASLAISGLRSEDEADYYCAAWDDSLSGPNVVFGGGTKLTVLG
notes: IgG format
For B11, the “IC50, NIH3T3 spheroid growth assay (CellTiter-Glo)” value in assay [4] was determined as 10.6 nM. Further, the Kd in assay [3] came to 0.07 nM; in assay [6], 0.12 nM. Further, in assay [5], the “EC50 (read off the curve)” value is approximately 0.08 nM.

B12: human anti-FGFR4 antibody U4-7 (antibody, V domains shown)
VH: EVQLLESGGGLVQPGGSLRLSCAASGFTFSDYYMSWVRQAPGKGLEWVSAISGSGGSTYYADSVKGRFTISRDNSKNTLYLQMNSLRAEDTAVYYCATLATYGPFDDWGQGTLVTVSS
VL: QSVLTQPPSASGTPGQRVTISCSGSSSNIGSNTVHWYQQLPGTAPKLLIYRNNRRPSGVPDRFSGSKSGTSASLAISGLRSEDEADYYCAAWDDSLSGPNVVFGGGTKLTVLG
notes: IgG format
In the case of B12, in assay [2], the Kd turned out to be 1.3 nM.

B13: FGFR4 binding Fab U4-7 (Fab, V domains shown)
VH: EVQLLESGGGLVQPGGSLRLSCAASGFTFSDYYMSWVRQAPGKGLEWVSAISGSGGSTYYADSVKGRFTISRDNSKNTLYLQMNSLRAEDTAVYYCATLATYGPFDDWGQGTLVTVSS
VL: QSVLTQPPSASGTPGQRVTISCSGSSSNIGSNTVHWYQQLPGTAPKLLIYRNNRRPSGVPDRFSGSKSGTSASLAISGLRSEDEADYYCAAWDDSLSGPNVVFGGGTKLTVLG
For the molecule B13, in assay [1], the “Elk1 luciferase reporter gene assay, % of control (+rhFGF 17), Fab at 0.1 µg/ml” value is 72.6 % of control (+rhFGF 17); the “Elk1 luciferase reporter gene assay, % of control (+rhFGF 17), Fab at 1 µg/ml” value was 33.1 % of control (+rhFGF 17); the “Elk1 luciferase reporter gene assay, % of control (+rhFGF 17), Fab at 10 µg/ml” value was 16.8 % of control (+rhFGF 17).

(Values after patent publication US20170226213A1 (Daiichi Sankyo, published 2017).)
